Data published in patent US20110159025.

How the values were obtained:
[1] = test system: HIV-1 capsid (CA), wild type, newly synthesized from HIVGFP (NL4-3 derived)
HIV-2 capsid (CA) = HIV-2 capsid (CA) (UniProt P04590)
[2] = target: HIV-1 capsid mutant G89V (pLaiΔEnv-GFP3 G89V) (UniProt P03348)

cyclophilin A (CypA)
CD86 expression in MDDC infected with HIVGFP(G)+SIVVLP(G), Cyclosporin A added at different times [1]: Up to 24 h, Cyclosporin A (CsA) reduces CD86 expression | CD86 up-regulation in MDDC after shRNA knockdown of CypA [1]: prevented CD86 up-regulation following infection with HIV-1 (HDVIRESRFP(G), encoding the reporter RFP), but not following treatment with LPS | MDDC activation (CD86 up-regulation) under Cyclosporin A [1]: prevented MDDC activation following infection with HIVGFP(G) and SIVVLP(G), but not following treatment with LPS | infection and activation of MDDC (HIV-2 capsid (CA)): has the potential to infect and activate MDDC in a CypA-dependent manner | CD86 expression in infected MDDC [2]: resulted in substantially reduced CD86 expression at similar levels of infection
